Data from patent USRE49026 (MEDICAL DIAGNOSTIC LABORATORIES, dated 2022).
Bridges are numbered along the chain shown (N, C = ends). Where no end group is shown, it is not given here.

B3: recombinant human IL-23R/Fc chimera (Fc fusion, UniProt Q5VWK5 24-353, looked up)
chain: GITNINCSGHIWVEPATIFKMGMNISIYCQAAIKNCQPRKLHFYKNGIKERFQITRINKTTARLWYKNFLEPHASMYCTAECPKHFQETLICGKDISSGYPPDIPDEVTCVIYEYSGNMTCTWNAGKLTYIDTKYVVHVKSLETEEEQQYLTSSYINISTDSLQGGKKYLVWVQAANALGMEESKQLQIHLDDIVIPSAAVISRAETINATVPKTIIYWDSQTTIEKVSCEMRYKATTNQTWNVKEFDTNFTYVQQSEFYLEPNIKYVFQVRCQETGKRYWQPWSSLFFHKTPETVPQVTSKAFQHDTWNSGLTVASISTGHLTSDNRGD
notes: range 24-353; bought (R&D Systems Cat. No. 1400-IR-050); also called rhIL23R-Fc; IL-23R/Fc fusion protein; not shown: human IgG1 Fc, residues 100-330

Tests used:
[1] = target: B3; assay: phage display panning, protein A capture
[2] = target: B3; assay: competitive ELISA against IL-23 (50 ng/well) on coated IL-23R-Fc
[3] = target: T1, human IL-23R expressed on the cell surface (human, UniProt Q5VWK5 24-629); assay: cell-based or functional assay
T1 sequence (looked up): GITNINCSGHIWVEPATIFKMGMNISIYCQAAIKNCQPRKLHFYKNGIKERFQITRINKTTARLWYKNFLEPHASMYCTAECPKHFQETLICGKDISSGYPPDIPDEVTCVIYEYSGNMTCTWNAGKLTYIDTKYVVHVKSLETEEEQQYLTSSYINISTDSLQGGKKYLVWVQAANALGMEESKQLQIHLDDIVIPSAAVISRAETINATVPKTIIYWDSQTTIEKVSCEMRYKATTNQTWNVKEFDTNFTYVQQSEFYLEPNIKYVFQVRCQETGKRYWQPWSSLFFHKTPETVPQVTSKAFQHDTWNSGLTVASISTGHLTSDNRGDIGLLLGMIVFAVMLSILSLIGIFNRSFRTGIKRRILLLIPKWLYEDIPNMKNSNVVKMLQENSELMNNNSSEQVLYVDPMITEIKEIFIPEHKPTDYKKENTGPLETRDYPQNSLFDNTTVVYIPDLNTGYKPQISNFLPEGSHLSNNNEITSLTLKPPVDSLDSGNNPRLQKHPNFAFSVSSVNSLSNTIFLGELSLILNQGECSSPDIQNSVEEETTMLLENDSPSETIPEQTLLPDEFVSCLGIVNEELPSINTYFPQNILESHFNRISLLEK

[4] = target: B3; assay: phage ELISA on coated IL-23R/Fc, anti-M13 detection
[5] = target: B3; assay: cell-free competitive ELISA against IL-23 on coated IL-23R-Fc
[6] = target: IL-23 receptor on Sprague Dawley rat splenocytes (rat); assay: cell-based or functional assay
[7] = target: T2, recombinant mouse IL-23R-Fc (mouse, UniProt Q8K4B4 24-374, limits assumed); assay: competitive ELISA against mouse IL-23 on coated mouse IL-23R-Fc
T2 construct: whole entry named; not shown: Fc part, not described
T2 sequence (looked up): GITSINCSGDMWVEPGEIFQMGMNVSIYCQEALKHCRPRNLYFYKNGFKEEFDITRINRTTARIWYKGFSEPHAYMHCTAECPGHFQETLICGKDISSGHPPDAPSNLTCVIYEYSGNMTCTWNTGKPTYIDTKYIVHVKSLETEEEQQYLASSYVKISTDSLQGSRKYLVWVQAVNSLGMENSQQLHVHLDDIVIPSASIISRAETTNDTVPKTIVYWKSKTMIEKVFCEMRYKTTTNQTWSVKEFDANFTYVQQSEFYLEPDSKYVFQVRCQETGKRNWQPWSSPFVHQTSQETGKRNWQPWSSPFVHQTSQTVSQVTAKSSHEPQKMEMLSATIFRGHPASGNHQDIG

[8] = target: T3, WT IL-23 cytokine (wild type p19 + p40, expressed in 293T cells) (human, UniProt Q9NPF7 20-189; P29460 23-328); assay: ELISA of conditioned media on coated IL-23R-Fc, anti-p40 detection
T3 construct: conditioned medium in the ELISAs; purified on HisTALON for the reporter assay; also called isolated WT IL-23 cytokine; not shown: 6xHis tag at the C-terminus
T3 sequence (looked up) 1: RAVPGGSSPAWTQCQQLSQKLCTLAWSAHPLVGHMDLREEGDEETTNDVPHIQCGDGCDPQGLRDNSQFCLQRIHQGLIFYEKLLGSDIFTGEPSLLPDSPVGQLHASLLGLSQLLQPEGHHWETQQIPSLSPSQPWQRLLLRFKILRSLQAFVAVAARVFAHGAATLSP
T3 sequence (looked up) 2: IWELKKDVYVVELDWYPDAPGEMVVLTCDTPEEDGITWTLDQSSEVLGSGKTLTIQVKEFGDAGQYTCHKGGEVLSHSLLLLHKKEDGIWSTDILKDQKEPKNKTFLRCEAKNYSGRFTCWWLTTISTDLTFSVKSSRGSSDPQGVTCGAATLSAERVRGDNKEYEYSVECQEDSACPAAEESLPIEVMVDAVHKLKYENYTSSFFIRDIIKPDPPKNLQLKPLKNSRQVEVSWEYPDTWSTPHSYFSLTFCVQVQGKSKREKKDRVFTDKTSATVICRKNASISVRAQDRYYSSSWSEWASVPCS

[9] = target: B3; assay: competitive ELISA on coated IL-23R-Fc, 50 µM peptide

TSWQSFWHHHNT (peptide, not shown: large carriers) [M13 phage displaying polypeptide no. 32]
binding result [1]: binds

SGASWVQYWVQR (also called peptide number 1) [synthetic polypeptide no. 1]
IC50 [2]: 6250 to 12500 nM | relative level of p-STAT3/STAT3 at 50 µM peptide [3]: ~0.6 ratio | relative level of p-STAT3/STAT3 at 100 µM peptide [3]: ~0.3 ratio | relative p-STAT3/STAT3 level at 10 µM, 5 µM and 1 µM peptide [3]: > 1.5 ratio

QSDTWMTYWKHH (peptide, not shown: large carriers) [M13 phage displaying polypeptide no. 7]
binding result [4]: binds

EPFAWHAYWVRN (peptide, not shown: large carriers) [M13 phage displaying polypeptide no. 29]
binding result [1]: binds

DSDWRWFWENHW (peptide, not shown: large carriers) [M13 phage displaying polypeptide no. 15]
binding result [1]: binds

NWTSQLHTGIST (peptide, not shown: large carriers, also called nos) [M13 phage displaying polypeptide no. 5]
binding result [4]: binds

B1: cyclic peptide no. 2HT AA (peptide)
peptide: AKMTWVDYWLKNCA
modifications: cyclic: head-to-tail amide bond (alanine to alanine)
notes: cyclised form of linear peptide no; also called cyclic polypeptide no; 2HT AA (Head to Tail: Alanine to Alanine)
IC50 [5]: 8.1 nM | IC50, IL-17F mRNA (qRT-PCR) in rat splenocytes, 200 ng/ml IL-23 [6]: 270 nM | IC50, IL-17F production (ELISA) in differentiated human Th17 cells, 1 ng/ml IL-23 [3]: 339 nM | IC50, IL-22 production (ELISA) in human PBMC, 2 ng/ml IL-23 [3]: 338 nM | IC50, cell-based DB-Luc assay [3]: 342 nM

B2: recombinant human IL-23 (ligand)
chain 1: RAVPGGSSPAWTQCQQLSQKLCTLAWSAHPLVGHMDLREEGDEETTNDVPHIQCGDGCDPQGLRDNSQFCLQRIHQGLIFYEKLLGSDIFTGEPSLLPDSPVGQLHASLLGLSQLLQPEGHHWETQQIPSLSPSQPWQRLLLRFKILRSLQAFVAVAARVFAHGAATLSP
chain 2: IWELKKDVYVVELDWYPDAPGEMVVLTCDTPEEDGITWTLDQSSEVLGSGKTLTIQVKEFGDAGQYTCHKGGEVLSHSLLLLHKKEDGIWSTDILKDQKEPKNKTFLRCEAKNYSGRFTCWWLTTISTDLTFSVKSSRGSSDPQGVTCGAATLSAERVRGDNKEYEYSVECQEDSACPAAEESLPIEVMVDAVHKLKYENYTSSFFIRDIIKPDPPKNLQLKPLKNSRQVEVSWEYPDTWSTPHSYFSLTFCVQVQGKSKREKKDRVFTDKTSATVICRKNASISVRAQDRYYSSSWSEWASVPCS
reporter luciferase activity, DB STAT3-Luc cells, 50 ng/ml [3]: ~10 fold

CAMTWQDYWLYGRC (disulfide 1-14, also called cyc23.15) [cyclic polypeptide no. 23.19]
IC50 [7]: 12.5 µM | IC50, DB STAT3-Luc reporter cells, 50 ng/ml IL-23 [3]: 2.5 µM

B3
binding result [8]: binds

AVWQNYWNEQLY (peptide, not shown: large carriers) [M13 phage displaying polypeptide no. 22]
binding result [1]: binds

ASWEMYWATSYN (peptide, not shown: large carriers) [M13 phage displaying polypeptide no. 10]
binding result [4]: binds

NWATYWQLRHQT (also called peptide number 9) [synthetic polypeptide no. 9]
IC50 [2]: ~3000 nM

STWQEYYDVWQK (peptide, not shown: large carriers) [M13 phage displaying polypeptide no. 18]
binding result [1]: binds

DDWMQYWRQQVR [synthetic polypeptide no. 27]
IC50 [2]: ~1560 nM

HDWQTYWVTRER (peptide, not shown: large carriers) [M13 phage displaying polypeptide no. 30]
binding result [1]: binds

YSWEWYATRFVQ (peptide, not shown: large carriers) [M13 phage displaying polypeptide no. 13]
binding result [1]: binds

DQERWLSYFLGT (peptide, not shown: large carriers) [M13 phage displaying polypeptide no. 3]
binding result [1]: binds

AWQDVWKMHNKV (peptide, not shown: large carriers) [M13 phage displaying polypeptide no. 25]
binding result [1]: binds

TENWWTMVPRWM (peptide, not shown: large carriers) [M13 phage displaying polypeptide no. 2]
binding result [1]: binds

MPDWHAFYLQAQ (peptide, not shown: large carriers) [M13 phage displaying polypeptide no. 6]
binding result [4]: binds

AETPSWYNYWMN (peptide, not shown: large carriers, also called nos) [M13 phage displaying polypeptide no. 4]
binding result [4]: binds

AMTWEDWWLYGR (also called peptide number 23) [synthetic polypeptide no. 23]
IC50 [2]: 0 to 1560 nM

SALSWEHYWRKH (peptide, not shown: large carriers, also called no) [M13 phage displaying polypeptide no. 20]
binding result [1]: binds

NWIDWWTQSEKH (peptide, not shown: large carriers) [M13 phage displaying polypeptide no. 19]
binding result [1]: binds

SGASFVQYWVQR [modified synthetic polypeptide no. 1.1]
OD450 of bound IL-23 with the peptide as competitor [9]: ≥ 0.4 OD450

SGASFVQYFVQR [modified synthetic polypeptide no. 1.3]
OD450 of bound IL-23 with the peptide as competitor [9]: ≥ 0.4 OD450

SGASWVQYFVQR [modified synthetic polypeptide no. 1.2]
OD450 of bound IL-23 with the peptide as competitor [9]: ≥ 0.4 OD450
